Source: patent US20080038265A1 (published 2008)

T1: soluble EpoR (EposR) (human, UniProt P19235 25-250, limits assumed)
T1 construct: Test antigen in BIAcore and in yeast display assays; also called soluble recombinant human EpoR
T1 sequence (looked up): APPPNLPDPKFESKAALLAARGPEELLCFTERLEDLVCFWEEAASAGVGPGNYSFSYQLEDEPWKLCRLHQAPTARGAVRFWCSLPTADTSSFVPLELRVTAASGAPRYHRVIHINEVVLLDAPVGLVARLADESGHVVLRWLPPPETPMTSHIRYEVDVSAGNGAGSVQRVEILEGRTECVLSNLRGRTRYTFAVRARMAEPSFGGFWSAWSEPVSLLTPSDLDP

B1: Ab12.118 (antibody, IgG2, V domains shown)
VH: QVQLQESGPGLVKPSETLSLTCTVSGASISSYYWSWIRQPPGKGLEWIGYIGYSGSTNYNPSLKSRVTISVDTSKNQFSLKLRSVTAADTAVYYCARERLGIGDYWGQGTLVTVSS
VL: DIQLTQSPSSLSASVGDRVTITCRASQGIRNDLGWYQQKPGKAPKRLIYAASSLQSGVPSRFSGSGSGTEFTLTISSLQPEDFATYYCLQHNTYPPTFGQGTKVEIK
B2: Ab12 (antibody, human IgG2, V domains shown)
VH: QVQLQESGPGLVKPSETLSLTCTVSGASISSYYWSWIRQPPGKGLEWIGYIYYSGSTNYNPSLKSRVTISVDTSKNQFSLKLRSVTAADTAVYYCARERLGIGDYWGQGTLVTVSS
VL: DIQLTQSPSSLSASVGDRVTITCRASQGIRNDLGWYQQKPGKAPKRLIYAASSLQSGVPSRFSGSGSGTEFTLTISSLQPEDFATYYCLQHNTYPPTFGQGTKVEIK
B3: Ab12.120 (antibody, IgG2, V domains shown)
VH: QVQLQESGPGLVKPSETLSLTCTVSGASISSYYWSWIRQPPGKGLEWIGYIYYEGSTNYNPSLKSRVTISVDTSKNQFSLKLRSVTAADTAVYYCARERLGIGDYWGQGTLVTVSS
VL: DIQLTQSPSSLSASVGDRVTITCRASQGIRNDLGWYQQKPGKAPKRLIYAASSLQSGVPSRFSGSGSGTEFTLTISSLQPEDFATYYCLQHNTYPPTFGQGTKVEIK
B4: Ab12.121 (antibody, IgG2, V domains shown)
VH: QVQLQESGPGLVKPSETLSLTCTVSGASISSYYWSWIRQPPGKGLEWIGYIGGSGSTNYNPSLKSRVTISVDTSKNQFSLKLRSVTAADTAVYYCARERLGIGDYWGQGTLVTVSS
VL: DIQLTQSPSSLSASVGDRVTITCRASQGIRNDLGWYQQKPGKAPKRLIYAASSLQSGVPSRFSGSGSGTEFTLTISSLQPEDFATYYCLQHNTYPPTFGQGTKVEIK
B5: Ab12.123 (antibody, IgG2, V domains shown)
VH: QVQLQESGPGLVKPSETLSLTCTVSGASISSYYWSWIRQPPGKGLEWIGYIGYEGSTNYNPSLKSRVTISVDTSKNQFSLKLRSVTAADTAVYYCARERLGIGDYWGQGTLVTVSS
VL: DIQLTQSPSSLSASVGDRVTITCRASQGIRNDLGWYQQKPGKAPKRLIYAASSLQSGVPSRFSGSGSGTEFTLTISSLQPEDFATYYCLQHNTYPPTFGQGTKVEIK
B6: Ab12.122 (antibody, IgG2, V domains shown)
VH: QVQLQESGPGLVKPSETLSLTCTVSGASISSYYWSWIRQPPGKGLEWIGYIYGEGSTNYNPSLKSRVTISVDTSKNQFSLKLRSVTAADTAVYYCARERLGIGDYWGQGTLVTVSS
VL: DIQLTQSPSSLSASVGDRVTITCRASQGIRNDLGWYQQKPGKAPKRLIYAASSLQSGVPSRFSGSGSGTEFTLTISSLQPEDFATYYCLQHNTYPPTFGQGTKVEIK
B7: Ab12.119 (antibody, IgG2, V domains shown)
VH: QVQLQESGPGLVKPSETLSLTCTVSGASISSYYWSWIRQPPGKGLEWIGYIYGSGSTNYNPSLKSRVTISVDTSKNQFSLKLRSVTAADTAVYYCARERLGIGDYWGQGTLVTVSS
VL: DIQLTQSPSSLSASVGDRVTITCRASQGIRNDLGWYQQKPGKAPKRLIYAASSLQSGVPSRFSGSGSGTEFTLTISSLQPEDFATYYCLQHNTYPPTFGQGTKVEIK
B8: Ab12.56 (antibody, IgG2, V domains shown)
VH: QVQLQESGPGLVKPSETLSLTCTVSGASISSYYWSWIRQPPGKGLEWIGYIAGTGSTNYNPSLKSRVTISVDTSKNQFSLKLRSVTAADTAVYYCARERLGIGDYWGQGTLVTVSS
VL: DIQLTQSPSSLSASVGDRVTITCRASQGIRNDLGWYQQKPGKAPKRLIYAASSLQSGVPSRFSGSGSGTEFTLTISSLQPEDFATYYCLQHNTYPPTFGQGTKVEIK
B9: Ab12.6 (antibody, V domains shown)
VH: QVQLQESGPGLVKPSETLSLTCTVSGASISSYYWSWIRQPPGKGLEWIGYIGGEGSTNYNPSLKSRVTISVDTSKNQFSLKLRSVTAADTAVYYCARERLGIGDYWGQGTLVTVSS
VL: DIQLTQSPSSLSASVGDRVTITCRASQGIRNDLGWYQQKPGKAPKRLIYAASSLQSGVPSRFSGSGSGTEFTLTISSLQPEDFATYYCLQHNTYPPTFGQGTKVEIK
B10: Ab12 41/WT (scFv)
scFv displayed on yeast: GENKVEYAPALMALSQVQLQESGPGLVKPSETLSLTCTVSGASISSYYWSWIRQPPGKGLEWIGYIYYSGSTNYNPSLKSRVTISVDTSKNQFSLKLRSVTAADTAVYYCARERLGIGDYWGQGTLVTVSSGGGGSGGGGSGGGGSDIQLTQSPSSLSASVGDRVTITCRASQGIRNDLGWYQQKPGKAPKRLIYAASSLQSGVPSRFSGSGSGTEFTLTISSLQPEDFATYYCLQHNTYPPTFGQGTKVEIK
notes: also called Ab12 scFv construct with linker 41 in the tether position and the Gly/Ser linker (WT) in the scFv linker position

target: human erythropoietin receptor on human erythroleukemic cells (UT-7/Epo, F36E) (human), P19235; test: cell-based or functional assay
Sequence (P19235 25-508, stated change not applied): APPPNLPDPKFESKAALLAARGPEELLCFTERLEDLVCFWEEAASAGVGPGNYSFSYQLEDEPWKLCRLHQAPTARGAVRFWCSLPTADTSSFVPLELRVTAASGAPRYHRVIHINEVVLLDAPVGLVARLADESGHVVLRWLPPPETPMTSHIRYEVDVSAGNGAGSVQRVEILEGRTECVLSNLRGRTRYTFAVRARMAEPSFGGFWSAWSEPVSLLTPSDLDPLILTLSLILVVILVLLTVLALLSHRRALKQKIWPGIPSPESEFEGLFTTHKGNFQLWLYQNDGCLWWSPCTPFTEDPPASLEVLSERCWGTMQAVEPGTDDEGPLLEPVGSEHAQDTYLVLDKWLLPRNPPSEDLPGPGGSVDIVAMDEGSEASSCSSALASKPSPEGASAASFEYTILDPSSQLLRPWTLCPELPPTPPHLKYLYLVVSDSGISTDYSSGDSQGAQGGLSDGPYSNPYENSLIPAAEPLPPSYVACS

Binder | EC50, cell proliferation assay [nM] | Emax, cell proliferation assay [absorbance]
B1 | 1.13 | 2.65
B2 | 1.29 | 1.98
B3 | 0.34 | 2
B4 | 0.465 | 2.3
B5 | 0.91 | 2.7
B6 | 0.42 | 2.4
B7 | 1.34 | 2.53
B8 | 1.17 | 2.51
B9 | 0.58 | 2.81

target: T1, soluble EpoR (EposR); test: yeast surface display, flow cytometry: equilibrium titration of scFv-displaying yeast with soluble EpoR at 37 C, bound EposR detected with MAB307 + anti-mouse RPE
Experimental: Functional cell surface protein expression was compared by incubating the transformed yeast with increasing concentrations of soluble EpoR (EposR) at 37° C.

Binder | EC50 (read off the curve) [nM]
B10 | ~6
